Experimental data: the Human Domainome abundance scans (Beltran et al. 2025)
± gives the uncertainty stated by the source.

B1: Pyruvate dehydrogenase protein X component, mitochondrial, residues 181 to 227; numbered along this chain, O00330 (parent)
chain: RFRLSPAARNILEKHSLDASQGTATGPRGIFTKEDALKLVQLKQTGK

Variants of: B1
Assay: abundance fitness (aPCA) (normalised: wild type 0, dead -1); higher = more abundant; growth selection in yeast, the domain comes from the species named
Conditions: Homo sapiens

Abundance fitness, by site and new letter:
K43: H 0.299 ± 0.14, Y -0.193 ± 0.091, F -0.305 ± 0.084, W -0.608 ± 0.15
L4: R -0.588 ± 0.058, I 0.245 ± 0.074, N 0.049 ± 0.092, E -0.104 ± 0.046, H -0.758 ± 0.11, T -0.204 ± 0.059
R28: D 0.259 ± 0.1, W -0.255 ± 0.057, F -0.085 ± 0.073, M -0.071 ± 0.072
I30: C -0.234 ± 0.075, S -0.145 ± 0.065, Y -0.292 ± 0.12, W -0.229 ± 0.1, R -0.413 ± 0.067, Q -0.178 ± 0.072, V -0.263 ± 0.078, M 0.137 ± 0.099, F -0.152 ± 0.05, D -0.087 ± 0.066
T32: E -0.447 ± 0.057, Q -0.376 ± 0.13, K -0.517 ± 0.15, G -0.482 ± 0.052, D -0.612 ± 0.17
A36: T -0.669 ± 0.15, M -0.41 ± 0.073, G -0.513 ± 0.051, W -1.02 ± 0.12
Q41: R 0.214 ± 0.061, C -0.855 ± 0.19, S 0.2 ± 0.056, M -0.181 ± 0.066, I -0.648 ± 0.12, P -0.2 ± 0.11, D -0.085 ± 0.1, G -0.227 ± 0.075, V -0.287 ± 0.078, N -0.159 ± 0.12
D18: T -0.256 ± 0.054, V -0.625 ± 0.054, F -0.92 ± 0.12, Q -0.113 ± 0.067, S -0.393 ± 0.058, E -0.815 ± 0.13, R -0.707 ± 0.056, I -0.336 ± 0.1, A -0.591 ± 0.11, C -0.331 ± 0.048, Y -0.605 ± 0.14
I11: Q -0.469 ± 0.095, M -0.52 ± 0.06, K -0.419 ± 0.087, G -0.409 ± 0.055, V -0.314 ± 0.053, F -0.424 ± 0.14, L -0.316 ± 0.066, D -0.175 ± 0.091, W -0.786 ± 0.092
E13: D -0.079 ± 0.058, Q -0.215 ± 0.1, G -0.387 ± 0.054, W -0.841 ± 0.11, C -0.441 ± 0.052, F -0.612 ± 0.082, P -0.564 ± 0.11, N 0.1 ± 0.11
G22: T -0.554 ± 0.065, M -0.369 ± 0.051, C -0.419 ± 0.081, V -0.378 ± 0.06
A8: Q -0.601 ± 0.087, V -0.639 ± 0.055, N -0.817 ± 0.18, W -1.15 ± 0.17, F -0.683 ± 0.12
K38: A -0.105 ± 0.065, W -0.951 ± 0.12, P -0.33 ± 0.071, M -0.251 ± 0.088, T -0.643 ± 0.097, H -0.149 ± 0.12, L -0.775 ± 0.058, D -0.577 ± 0.23, N -0.258 ± 0.13
S16: E 0.035 ± 0.051, P -0.281 ± 0.057, T -0.109 ± 0.05, N 0.018 ± 0.087, Q 0.069 ± 0.085, L -0.667 ± 0.047
K47: R -0.293 ± 0.35, N -0.751 ± 0.36, H -0.156 ± 0.48, M 0.312 ± 0.15, E 0.284 ± 0.2
S20: G -0.192 ± 0.053, F -0.545 ± 0.068, L -0.345 ± 0.049, Y -0.932 ± 0.18, Q -0.242 ± 0.067, K -0.108 ± 0.046, E 0.034 ± 0.052, A -0.056 ± 0.045, T -0.109 ± 0.051
Q44: W -0.641 ± 0.14, F -0.328 ± 0.049, A -0.008 ± 0.045, N -0.337 ± 0.14, T -0.451 ± 0.13, M -0.389 ± 0.12, L -0.131 ± 0.053
H15: R -0.985 ± 0.077, S -0.517 ± 0.075, Y -0.176 ± 0.09, D -0.283 ± 0.06, G -0.255 ± 0.052, L -0.813 ± 0.078, M -0.1 ± 0.082, E -0.138 ± 0.064, A -0.276 ± 0.069, N 0.019 ± 0.078
A24: C -0.473 ± 0.089, L -0.532 ± 0.051, H -0.454 ± 0.053, Y -1.07 ± 0.25, S -0.271 ± 0.059, F -0.667 ± 0.086, Q -0.597 ± 0.11
A7: R -0.222 ± 0.047, S -0.078 ± 0.052, H -0.605 ± 0.15, T 0.01 ± 0.073, N -0.432 ± 0.072
L17: D -0.534 ± 0.14, C -0.244 ± 0.11, Q -0.483 ± 0.12, G -0.575 ± 0.05
R1: G 0.171 ± 0.063, P -1.1 ± 0.25, W -0.651 ± 0.16, M -0.489 ± 0.17, C -0.516 ± 0.27, Q -0.362 ± 0.32, K -0.289 ± 0.17
K33: N -0.462 ± 0.18, T -0.04 ± 0.084, W -0.762 ± 0.16, V -0.291 ± 0.054, F -0.623 ± 0.073, Q 0.036 ± 0.098, S -0.305 ± 0.084
K14: C -0.306 ± 0.056, H -0.164 ± 0.079, M -0.149 ± 0.094, F -0.146 ± 0.11, D -0.172 ± 0.058
V40: S -0.381 ± 0.088, A -0.338 ± 0.073, C -0.183 ± 0.21, G -0.545 ± 0.059, I -0.411 ± 0.082, T -0.706 ± 0.14, H -1.01 ± 0.4, Q -0.252 ± 0.12
T25: C -0.423 ± 0.095, E -0.765 ± 0.11, M -0.423 ± 0.072, D -0.582 ± 0.094, F -0.697 ± 0.082, R -0.563 ± 0.053, P -0.559 ± 0.064, K -0.414 ± 0.1, Q -0.522 ± 0.052
E34: C -0.437 ± 0.17, T -0.299 ± 0.13, G -0.323 ± 0.045, V -0.515 ± 0.051, H -0.095 ± 0.082, N -0.811 ± 0.27, D -0.058 ± 0.047
G29: Y -1.01 ± 0.18, T -0.788 ± 0.082, F -1.05 ± 0.28, C -0.706 ± 0.12, S -0.435 ± 0.069, Q -0.418 ± 0.051, N -0.395 ± 0.11
L12: A -0.317 ± 0.048, S -0.361 ± 0.053, K -0.481 ± 0.11, D 0.018 ± 0.076, C -0.019 ± 0.067, H -0.504 ± 0.11, W -0.765 ± 0.11, G -0.332 ± 0.048, R -0.422 ± 0.051
S5: H -0.795 ± 0.14, N -0.327 ± 0.2, M -0.036 ± 0.062, Q -0.384 ± 0.097, L -0.725 ± 0.072, A -0.257 ± 0.049
F31: T -0.171 ± 0.093, N -0.084 ± 0.11, R -0.455 ± 0.063, K -0.423 ± 0.12, L -0.412 ± 0.046, V -0.349 ± 0.065
D35: R -0.847 ± 0.093, G -0.565 ± 0.079, T -0.936 ± 0.21, N -0.926 ± 0.39, K -0.828 ± 0.14, V -1 ± 0.1
F2: I -0.059 ± 0.1, C -0.605 ± 0.075, P -1.1 ± 0.14, K -0.232 ± 0.073, V -0.486 ± 0.056, N 0.091 ± 0.073, G -0.535 ± 0.04, Q -0.679 ± 0.13, T -0.323 ± 0.079, S -0.239 ± 0.046
R9: V -0.206 ± 0.054, Y -0.495 ± 0.076, D -0.262 ± 0.058, N -0.092 ± 0.048, E -0.21 ± 0.085, K 0.1 ± 0.05, W -0.668 ± 0.089
Q21: K -0.339 ± 0.045, P -0.453 ± 0.06, M -0.084 ± 0.051, S -0.158 ± 0.058, D -0.194 ± 0.068
G46: E 0.122 ± 0.12, M -0.042 ± 0.12, Q 0.249 ± 0.14, R -0.105 ± 0.05, F -0.464 ± 0.31, Y 0.219 ± 0.18, A -0.323 ± 0.095, W -0.553 ± 0.17, K -0.375 ± 0.13, I -0.689 ± 0.2
T45: R -0.023 ± 0.058, W -0.276 ± 0.075, S 0.167 ± 0.052, H -0.189 ± 0.13, G 0.166 ± 0.057, V -0.156 ± 0.053
A19: H -0.323 ± 0.12, L -0.412 ± 0.053, W -0.362 ± 0.044, S -0.242 ± 0.066, C -0.186 ± 0.074, F -0.59 ± 0.14, Q -0.343 ± 0.07, P 0.249 ± 0.06, R -0.362 ± 0.058, T -0.379 ± 0.048, Y -0.236 ± 0.15, I -0.295 ± 0.16, V -0.227 ± 0.053
T23: Q -0.24 ± 0.087, F -0.36 ± 0.072, S -0.138 ± 0.044, N -0.195 ± 0.066, R -0.237 ± 0.045, Y -0.309 ± 0.071, C -0.234 ± 0.056, E 0.067 ± 0.055
G26: K -0.571 ± 0.055, M -0.435 ± 0.069, E -0.539 ± 0.085, L -0.516 ± 0.057, P -0.55 ± 0.076, S -0.608 ± 0.068
L39: C -0.694 ± 0.14, S -0.127 ± 0.065, A -0.319 ± 0.067, F -0.746 ± 0.18, T -0.505 ± 0.16, R -0.484 ± 0.12, G -0.222 ± 0.062, W -0.731 ± 0.098
N10: W -0.272 ± 0.048, M -0.052 ± 0.087, D 0.192 ± 0.085, Q 0.106 ± 0.051, V -0.001 ± 0.058, F 0.106 ± 0.088, C -0.13 ± 0.055
L42: A 0.131 ± 0.052, Q 0.115 ± 0.064, S -0.247 ± 0.081, R -0.094 ± 0.044, M -0.09 ± 0.1, N -0.288 ± 0.24
P27: W -0.682 ± 0.079, Y -0.689 ± 0.13, I -0.547 ± 0.11, T -0.167 ± 0.069, K -0.146 ± 0.063, F -0.655 ± 0.14, D -0.022 ± 0.07, H -0.309 ± 0.058
R3: I 0.367 ± 0.097, W -0.119 ± 0.046, L -0.393 ± 0.05, Q -0.374 ± 0.084
P6: A 0.027 ± 0.058, W -0.261 ± 0.062, F -0.35 ± 0.08, S 0.041 ± 0.044, D -0.091 ± 0.065, L -0.2 ± 0.046, E 0.355 ± 0.064, K 0.07 ± 0.077, I -0.113 ± 0.046, G -0.61 ± 0.048
L37: P -0.541 ± 0.071, V -0.165 ± 0.068, C -0.388 ± 0.079, W -0.293 ± 0.054, H -0.544 ± 0.17, Y -0.383 ± 0.21, Q -0.545 ± 0.14
